Reference: article PMC8397269 (Science Advances, 2021)

T1: His-lamin B1, full length (human, UniProt P20700 1-586)
T1 sequence (looked up): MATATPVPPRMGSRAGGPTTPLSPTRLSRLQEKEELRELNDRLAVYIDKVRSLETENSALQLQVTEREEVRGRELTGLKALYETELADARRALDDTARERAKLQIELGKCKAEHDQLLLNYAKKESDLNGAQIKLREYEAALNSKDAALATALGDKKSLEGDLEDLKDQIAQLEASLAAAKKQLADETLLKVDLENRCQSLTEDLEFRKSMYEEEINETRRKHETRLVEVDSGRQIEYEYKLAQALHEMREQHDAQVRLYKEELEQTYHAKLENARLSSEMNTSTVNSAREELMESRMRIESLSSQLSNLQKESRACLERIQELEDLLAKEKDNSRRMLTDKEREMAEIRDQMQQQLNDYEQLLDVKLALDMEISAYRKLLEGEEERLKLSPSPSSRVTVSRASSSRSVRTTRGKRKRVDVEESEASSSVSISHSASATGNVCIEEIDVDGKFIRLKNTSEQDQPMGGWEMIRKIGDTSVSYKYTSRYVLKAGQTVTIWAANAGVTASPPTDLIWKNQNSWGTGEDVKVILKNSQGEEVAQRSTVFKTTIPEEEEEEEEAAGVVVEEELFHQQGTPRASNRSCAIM


How the values were obtained:
His-IRIF 53BP1 = His-IRIF 53BP1 (human, UniProt Q12888 1222-1659); test: pull-down
[1] = target: T1, His-lamin B1, full length; test: pull-down

Binder | binding result (His-IRIF 53BP1) | binding result [1]
GST-Head-Coil1 lamin B1 (domain or fragment, human, UniProt P20700 1-243, looked up) MATATPVPPRMGSRAGGPTTPLSPTRLSRLQEKEELRELNDRLAVYIDKVRSLETENSALQLQVTEREEVRGRELTGLKALYETELADARRALDDTARERAKLQIELGKCKAEHDQLLLNYAKKESDLNGAQIKLREYEAALNSKDAALATALGDKKSLEGDLEDLKDQIAQLEASLAAAKKQLADETLLKVDLENRCQSLTEDLEFRKSMYEEEINETRRKHETRLVEVDSGRQIEYEYKLA | binds | –
GST-Nterm lamin B1 (domain or fragment, human, UniProt P20700 1-424, looked up) MATATPVPPRMGSRAGGPTTPLSPTRLSRLQEKEELRELNDRLAVYIDKVRSLETENSALQLQVTEREEVRGRELTGLKALYETELADARRALDDTARERAKLQIELGKCKAEHDQLLLNYAKKESDLNGAQIKLREYEAALNSKDAALATALGDKKSLEGDLEDLKDQIAQLEASLAAAKKQLADETLLKVDLENRCQSLTEDLEFRKSMYEEEINETRRKHETRLVEVDSGRQIEYEYKLAQALHEMREQHDAQVRLYKEELEQTYHAKLENARLSSEMNTSTVNSAREELMESRMRIESLSSQLSNLQKESRACLERIQELEDLLAKEKDNSRRMLTDKEREMAEIRDQMQQQLNDYEQLLDVKLALDMEISAYRKLLEGEEERLKLSPSPSSRVTVSRASSSRSVRTTRGKRKRVDVEES | binds | –
GST-53BP1 IRIF (domain or fragment, human, UniProt Q12888 1222-1659, looked up) EEEFDMPQPPHGHVLHRHMRTIREVRTLVTRVITDVYYVDGTEVERKVTEETEEPIVECQECETEVSPSQTGGSSGDLGDISSFSSKASSLHRTSSGTSLSAMHSSGSSGKGAGPLRGKTSGTEPADFALPSSRGGPGKLSPRKGVSQTGTPVCEEDGDAGLGIRQGGKAPVTPRGRGRRGRPPSRTTGTRETAVPGPLGIEDISPNLSPDDKSFSRVVPRVPDSTRRTDVGAGALRRSDSPEIPFQAAAGPSDGLDASSPGNSFVGLRVVAKWSSNGYFYSGKITRDVGAGKYKLLFDDGYECDVLGKDILLCDPIPLDTEVTALSEDEYFSAGVVKGHRKESGELYYSIEKEGQRKWYKRMAVILSLEQGNRLREQYGLGPYEAVTPLTKAADISLDNLVEGKRKRRSNVSSPATPTASSSSSTTPTRKITESPRA | – | binds
